# Test results reported in paper PMC3258126.
# Tested on: rP20 WT (Bamboo mosaic virus satellite RNA (satBaMV, clone pBSF4))
# Test: EMSA
substance,measurement,value
WT satBaMV RNA transcript,Kd,31 nM
